Results from patent publication US10731195B2, “Methods for the enzymatic modification of steviol glycosides, modified steviol glycosides obtainable thereby, and the use thereof as sweeteners” (Rijksuniversiteit Groningen, priority 2015, dated 2020).
Changes are numbered by the printed parent chain. Numbers in names are those of the source. Like-named read-outs stand apart in the source and are kept apart here.

How the values were obtained:
[1] = cited from earlier work
[2] = Isolation and structural analysis (NMR, methylation analysis) of α-glucosylated Rebaudioside A products; format: biochemical; settings: 10 U/mL enzyme, 50 mM Rebaudioside A, 2 x 1000 mM sucrose, 24 hours
Description: For quantitative synthesis of α-glucosylated Rebaudioside A products using GTF180-ΔN and its derived mutants, incubations were performed in 5 mL 25 mM sodium acetate (pH 4.7), 1 mM CaCl2, 50 mM steviol glycoside with two batches of 1,000 mM equivalent of sucrose donor (t=0 and 3 h) to a total of 2,000 mM sucrose, using 10 U/mL enzyme at 37° C. for 24 hours. Products were purified from the incubation mixture by solid phase extraction using Strata-X 33u Polymeric Reversed Phase columns (Phenomenex). Products were separated on a Luna 10 μm NH2 semi-preparative chromatography column (250 mm×10 mm, Phenomenex) and were manually collected at a flow-rate of 4.6 mL/min, starting with a 2 min isocratic step of 80% solvent A followed by a linear gradient of 80 to 50% solvent A over 38 min (solvent A=acetonitrile; solvent B=0.025% acetic acid). The solvent of the collected fractions was evaporated under a stream of nitrogen gas and the dried materials were dissolved in deionized water.
Resolution-enhanced 1D/2D 500-MHz ^1H NMR spectra were recorded in D2O on a Bruker DRX-500 spectrometer (Bijvoet Center, Department of NMR Spectroscopy, Utrecht University) at a probe temperature of 334K. Data acquisition and processing were done with Bruker Topspin 2.1. Prior to analysis, samples were exchanged twice in D2O (99.9 atom % D, Cambridge Isotope Laboratories, Inc., Andover, Mass.) with intermediate lyophilization, and then dissolved in 0.6 mL D2O. […] The 2D TOCSY spectra were recorded using an MLEV-17 (composite pulse devised by Levitt et al (1982)) mixing sequence with spin-lock times of 40-200 ms. The 2D ROESY spectra were recorded using standard Bruker XWINNMR software with mixing time of 200 ms. […] Natural abundance 2D ^13C-^1H HSQC experiments (^1H frequency 500.0821 MHz, ^13C frequency 125.7552 MHz) were recorded without decoupling during acquisition of the ^1H FID. […]

[3] = Time course of Rebaudioside A utilization and RebAG1 formation (NP-HPLC); format: biochemical; settings: 1000 mM sucrose, 10 U/mL enzyme
Description: (§1) Incubation reactions were performed in 25 mM sodium acetate (pH 4.7), 1 mM CaCl2, 50 to 1,000 mM sucrose, 50-100 mM steviol glycoside, and 2-30 U/mL purified GTF180-ΔN enzyme or GTF180-ΔN mutant enzyme at 37° C. for 15 min to 24 hours. Reactions were stopped by heat inactivation (100° C. for 15 min). From the inactivated samples 250 uL was mixed with 1000 ul of 10 mM catechol (internal standard) and subsequently purified by solid phase extraction using Strata-X 33u Polymeric Reversed Phase columns (Phenomenex). For HPLC analysis 20 μL of the purified sample was injected on a Luna 10 μm NH2 chromatography column (250 mm×4.6 mm; Phenomenex). Reaction components were separated at a flow-rate of 1 mL/min under gradient elution conditions, starting with a 2 min isocratic step of 70% solvent A followed by a linear gradient from 70 to 55% solvent A over 9 min (solvent A=acetonitrile; solvent B=0.025% acetic acid). Rebaudioside A and the mono-α-glucosylated Rebaudioside A product concentrations were determined with NP-HPLC, using their corresponding calibration curves ranging from 1.56 to 50 mM. All data were normalized with catechol as internal standard. The standard deviation of the response was less than 5%. […]

[4] = Polymerization (oligosaccharide and glucan formation from sucrose) activity; format: biochemical; settings: data not shown
Description: Over a hundred glucan and fructansucrase wild type and mutant enzymes, mostly from Lactobacillus reuteri, were screened for Rebaudioside A α-glucosylation. For this, enzymes were incubated in 50 mM Rebaudioside A (FIG. 1) and 1000 mM sucrose for 3 hours. […] This is a clear advantage during downstream processing, the purification of the α-glucosylated Rebaudioside A products from mono- and disaccharides, oligosaccharides and glucans. By eliminating α-glucan synthesis, the most important side reaction, higher glycosylation yields were obtained for Rebaudioside A. At lower sucrose concentration (200 mM), these mutants had similar or even higher transglucosylating activity with Rebaudioside A than GTF180-ΔN and mutants S1137Y and Q1140E (data not shown).

[5] = Screening glucan and fructansucrase enzymes for α-glucosylation of Rebaudioside A; format: biochemical; settings: compared to GTF180-ΔN where comparative
Description: as §1

[6] = in water and in carbonated beverage base

Molecule: C=C1C[C@@]23CC[C@H]4[C@@](C)(CCC[C@@]4(C)C(=O)O[C@@H]4O[C@H](CO)[C@@H](O)[C@H](O[C@@H]5O[C@H](CO)[C@@H](O)[C@H](O)[C@H]5O)[C@H]4O[C@@H]4O[C@H](CO)[C@@H](O)[C@H](O)[C@H]4O)[C@@H]2CC[C@]1(O[C@@H]1O[C@H](CO)[C@@H](O)[C@H](O[C@@H]2O[C@H](CO)[C@@H](O)[C@H](O)[C@H]2O)[C@H]1O[C@@H]1O[C@H](CO)[C@@H](O)[C@H](O)[C@H]1O)C3 [Rebaudioside M]
- bitterness compared to Rebaudioside A ([1]; in acidified water): reduced bitterness
- sweetness compared to Rebaudioside A ([1]; in acidified water): higher sweetness
- bitterness compared to Rebaudioside A ([1]; in water solution): reduced bitterness

Molecule: C=C1C[C@@]23CC[C@H]4[C@@](C)(CCC[C@@]4(C)C(=O)O[C@@H]4O[C@H](CO)[C@@H](O)[C@H](O)[C@H]4O[C@@H]4O[C@H](CO)[C@@H](O)[C@H](O)[C@H]4O)[C@@H]2CC[C@]1(O[C@@H]1O[C@H](CO)[C@@H](O)[C@H](O[C@@H]2O[C@H](CO)[C@@H](O)[C@H](O)[C@H]2O)[C@H]1O[C@@H]1O[C@H](CO)[C@@H](O)[C@H](O)[C@H]1O)C3 [Rebaudioside D]
- bitterness compared to Rebaudioside A [1, 6]: decreased bitterness
- sweetness compared to Rebaudioside A [1, 6]: increased sweetness

B1: GTF180-ΔN: N-terminal truncated GTF180 (AY697430) of Lactobacillus reuteri 180; Met-Gly-742-1772-His6 (protein, listed as Lactobacillus reuteri)
chain: MGINGQQYYIDPTTGQPRKNFLLQNGNDWIYFDKDTGAGTNALKLQFDKGTISADEQYRRGNEAYSYDDKSIENVNGYLTADTWYRPKQILKDGTTWTDSKETDMRPILMVWWPNTVTQAYYLNYMKQYGNLLPASLPSFSTDADSAELNHYSELVQQNIEKRISETGSTDWLRTLMHEFVTKNSMWNKDSENVDYGGLQLQGGFLKYVNSDLTKYANSDWRLMNRTATNIDGKNYGGAEFLLANDIDNSNPVVQAEELNWLYYLMNFGTITGNNPEANFDGIRVDAVDNVDVDLLSIARDYFNAAYNMEQSDASANKHINILEDWGWDDPAYVNKIGNPQLTMDDRLRNAIMDTLSGAPDKNQALNKLITQSLVNRANDNTENAVIPSYNFVRAHDSNAQDQIRQAIQAATGKPYGEFNLDDEKKGMEAYINDQNSTNKKWNLYNMPSAYTILLTNKDSVPRVYYGDLYQDGGQYMEHKTRYFDTITNLLKTRVKYVAGGQTMSVDKNGILTNVRFGKGAMNATDTGTDETRTEGIGVVISNNTNLKLNDGESVVLHMGAAHKNQKYRAVILTTEDGVKNYTNDTDAPVAYTDANGDLHFTNTNLDGQQYTAVRGYANPDVTGYLAVWVPAGAADDQDARTAPSDEAHTTKTAYRSNAALDSNVIYEGFSNFIYWPTTESERTNVRIAQNADLFKSWGITTFELAPQYNSSKDGTFLDSIIDNGYAFTDRYDLGMSTPNKYGSDEDLRNALQALHKAGLQAIADWVPDQIYNLPGKEAVTVTRSDDHGTTWEVSPIKNVVYITNTIGGGEYQKKYGGEFLDTLQKEYPQLFSQVYPVTQTTIDPSVKIKEWSAKYFNGTNILHRGAGYVLRSNDGKYYNLGTSTQQFLPSQLSVQDNEGYGFVKEGNNYHYYDENKQMVKDAFIQDSVGNWYYLDKNGNMVANQSPVEISSNGASGTYLFLNNGTSFRSGLVKTDAGTYYYDGDGRMVRNQTVSDGAMTYVLDENGKLVSESFDSSATEAHPLKPGDLNGQK
- share of di-glucosylated Rebaudioside A product elongated with an (α1→3)-linked glucose [2]: ~75%
- share of di-glucosylated Rebaudioside A product elongated with another (α1→6)-linked glucose [2]: ~25%
- share of mono-α-glucosylated product with (α1→6)-linked glucose at the C-19 β-linked glucose [2]: 100%
- Rebaudioside A conversion ([3]; 50 mM Rebaudioside A): 55%
- RebAG1 formed from 50 mM Rebaudioside A [3]: ~13 mM

B2: GTF180-ΔN-XM2: single amino acid mutant (W1065L) of GTF180-ΔN (protein, listed as Lactobacillus reuteri)
chain: B1 chain with W326L
- polymerization (oligosaccharide and glucan formation) activity [4]: almost no polymerization
- α-glucosylation / transglucosylating activity towards Rebaudioside A (in words) [5]: able to α-glucosylate Rebaudioside A
